No end group written: not given here.
Tests used:
[1] = molecular target: low density lipoprotein receptor-related protein-1 (LRP-1), mouse (mouse) (UniProt Q91ZX7); assay: cell-based or functional assay
[2] = molecular target: beta-F1 ATPase (ATP synthase beta subunit), mouse, on brain microvessels (mouse, UniProt P56480 47-529); assay: cell-based or functional assay
Sequence of beta-F1 ATPase (ATP synthase beta subunit), mouse, on brain microvessels (P56480 47-529): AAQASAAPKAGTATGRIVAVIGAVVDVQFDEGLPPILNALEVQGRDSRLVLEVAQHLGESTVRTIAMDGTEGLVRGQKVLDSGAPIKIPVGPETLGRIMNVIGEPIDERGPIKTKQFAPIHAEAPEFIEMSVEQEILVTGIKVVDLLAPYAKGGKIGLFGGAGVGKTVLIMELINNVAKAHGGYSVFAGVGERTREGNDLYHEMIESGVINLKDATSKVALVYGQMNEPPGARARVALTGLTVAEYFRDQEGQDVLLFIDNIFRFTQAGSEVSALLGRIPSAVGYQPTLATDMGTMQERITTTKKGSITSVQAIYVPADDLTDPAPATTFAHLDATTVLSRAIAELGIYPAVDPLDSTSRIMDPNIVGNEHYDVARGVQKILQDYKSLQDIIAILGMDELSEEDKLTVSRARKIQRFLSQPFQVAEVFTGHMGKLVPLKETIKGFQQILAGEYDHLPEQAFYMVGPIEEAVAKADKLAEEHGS

Sequence of low density lipoprotein receptor-related protein-1 (LRP-1), mouse (mouse) (Q91ZX7 20-4545): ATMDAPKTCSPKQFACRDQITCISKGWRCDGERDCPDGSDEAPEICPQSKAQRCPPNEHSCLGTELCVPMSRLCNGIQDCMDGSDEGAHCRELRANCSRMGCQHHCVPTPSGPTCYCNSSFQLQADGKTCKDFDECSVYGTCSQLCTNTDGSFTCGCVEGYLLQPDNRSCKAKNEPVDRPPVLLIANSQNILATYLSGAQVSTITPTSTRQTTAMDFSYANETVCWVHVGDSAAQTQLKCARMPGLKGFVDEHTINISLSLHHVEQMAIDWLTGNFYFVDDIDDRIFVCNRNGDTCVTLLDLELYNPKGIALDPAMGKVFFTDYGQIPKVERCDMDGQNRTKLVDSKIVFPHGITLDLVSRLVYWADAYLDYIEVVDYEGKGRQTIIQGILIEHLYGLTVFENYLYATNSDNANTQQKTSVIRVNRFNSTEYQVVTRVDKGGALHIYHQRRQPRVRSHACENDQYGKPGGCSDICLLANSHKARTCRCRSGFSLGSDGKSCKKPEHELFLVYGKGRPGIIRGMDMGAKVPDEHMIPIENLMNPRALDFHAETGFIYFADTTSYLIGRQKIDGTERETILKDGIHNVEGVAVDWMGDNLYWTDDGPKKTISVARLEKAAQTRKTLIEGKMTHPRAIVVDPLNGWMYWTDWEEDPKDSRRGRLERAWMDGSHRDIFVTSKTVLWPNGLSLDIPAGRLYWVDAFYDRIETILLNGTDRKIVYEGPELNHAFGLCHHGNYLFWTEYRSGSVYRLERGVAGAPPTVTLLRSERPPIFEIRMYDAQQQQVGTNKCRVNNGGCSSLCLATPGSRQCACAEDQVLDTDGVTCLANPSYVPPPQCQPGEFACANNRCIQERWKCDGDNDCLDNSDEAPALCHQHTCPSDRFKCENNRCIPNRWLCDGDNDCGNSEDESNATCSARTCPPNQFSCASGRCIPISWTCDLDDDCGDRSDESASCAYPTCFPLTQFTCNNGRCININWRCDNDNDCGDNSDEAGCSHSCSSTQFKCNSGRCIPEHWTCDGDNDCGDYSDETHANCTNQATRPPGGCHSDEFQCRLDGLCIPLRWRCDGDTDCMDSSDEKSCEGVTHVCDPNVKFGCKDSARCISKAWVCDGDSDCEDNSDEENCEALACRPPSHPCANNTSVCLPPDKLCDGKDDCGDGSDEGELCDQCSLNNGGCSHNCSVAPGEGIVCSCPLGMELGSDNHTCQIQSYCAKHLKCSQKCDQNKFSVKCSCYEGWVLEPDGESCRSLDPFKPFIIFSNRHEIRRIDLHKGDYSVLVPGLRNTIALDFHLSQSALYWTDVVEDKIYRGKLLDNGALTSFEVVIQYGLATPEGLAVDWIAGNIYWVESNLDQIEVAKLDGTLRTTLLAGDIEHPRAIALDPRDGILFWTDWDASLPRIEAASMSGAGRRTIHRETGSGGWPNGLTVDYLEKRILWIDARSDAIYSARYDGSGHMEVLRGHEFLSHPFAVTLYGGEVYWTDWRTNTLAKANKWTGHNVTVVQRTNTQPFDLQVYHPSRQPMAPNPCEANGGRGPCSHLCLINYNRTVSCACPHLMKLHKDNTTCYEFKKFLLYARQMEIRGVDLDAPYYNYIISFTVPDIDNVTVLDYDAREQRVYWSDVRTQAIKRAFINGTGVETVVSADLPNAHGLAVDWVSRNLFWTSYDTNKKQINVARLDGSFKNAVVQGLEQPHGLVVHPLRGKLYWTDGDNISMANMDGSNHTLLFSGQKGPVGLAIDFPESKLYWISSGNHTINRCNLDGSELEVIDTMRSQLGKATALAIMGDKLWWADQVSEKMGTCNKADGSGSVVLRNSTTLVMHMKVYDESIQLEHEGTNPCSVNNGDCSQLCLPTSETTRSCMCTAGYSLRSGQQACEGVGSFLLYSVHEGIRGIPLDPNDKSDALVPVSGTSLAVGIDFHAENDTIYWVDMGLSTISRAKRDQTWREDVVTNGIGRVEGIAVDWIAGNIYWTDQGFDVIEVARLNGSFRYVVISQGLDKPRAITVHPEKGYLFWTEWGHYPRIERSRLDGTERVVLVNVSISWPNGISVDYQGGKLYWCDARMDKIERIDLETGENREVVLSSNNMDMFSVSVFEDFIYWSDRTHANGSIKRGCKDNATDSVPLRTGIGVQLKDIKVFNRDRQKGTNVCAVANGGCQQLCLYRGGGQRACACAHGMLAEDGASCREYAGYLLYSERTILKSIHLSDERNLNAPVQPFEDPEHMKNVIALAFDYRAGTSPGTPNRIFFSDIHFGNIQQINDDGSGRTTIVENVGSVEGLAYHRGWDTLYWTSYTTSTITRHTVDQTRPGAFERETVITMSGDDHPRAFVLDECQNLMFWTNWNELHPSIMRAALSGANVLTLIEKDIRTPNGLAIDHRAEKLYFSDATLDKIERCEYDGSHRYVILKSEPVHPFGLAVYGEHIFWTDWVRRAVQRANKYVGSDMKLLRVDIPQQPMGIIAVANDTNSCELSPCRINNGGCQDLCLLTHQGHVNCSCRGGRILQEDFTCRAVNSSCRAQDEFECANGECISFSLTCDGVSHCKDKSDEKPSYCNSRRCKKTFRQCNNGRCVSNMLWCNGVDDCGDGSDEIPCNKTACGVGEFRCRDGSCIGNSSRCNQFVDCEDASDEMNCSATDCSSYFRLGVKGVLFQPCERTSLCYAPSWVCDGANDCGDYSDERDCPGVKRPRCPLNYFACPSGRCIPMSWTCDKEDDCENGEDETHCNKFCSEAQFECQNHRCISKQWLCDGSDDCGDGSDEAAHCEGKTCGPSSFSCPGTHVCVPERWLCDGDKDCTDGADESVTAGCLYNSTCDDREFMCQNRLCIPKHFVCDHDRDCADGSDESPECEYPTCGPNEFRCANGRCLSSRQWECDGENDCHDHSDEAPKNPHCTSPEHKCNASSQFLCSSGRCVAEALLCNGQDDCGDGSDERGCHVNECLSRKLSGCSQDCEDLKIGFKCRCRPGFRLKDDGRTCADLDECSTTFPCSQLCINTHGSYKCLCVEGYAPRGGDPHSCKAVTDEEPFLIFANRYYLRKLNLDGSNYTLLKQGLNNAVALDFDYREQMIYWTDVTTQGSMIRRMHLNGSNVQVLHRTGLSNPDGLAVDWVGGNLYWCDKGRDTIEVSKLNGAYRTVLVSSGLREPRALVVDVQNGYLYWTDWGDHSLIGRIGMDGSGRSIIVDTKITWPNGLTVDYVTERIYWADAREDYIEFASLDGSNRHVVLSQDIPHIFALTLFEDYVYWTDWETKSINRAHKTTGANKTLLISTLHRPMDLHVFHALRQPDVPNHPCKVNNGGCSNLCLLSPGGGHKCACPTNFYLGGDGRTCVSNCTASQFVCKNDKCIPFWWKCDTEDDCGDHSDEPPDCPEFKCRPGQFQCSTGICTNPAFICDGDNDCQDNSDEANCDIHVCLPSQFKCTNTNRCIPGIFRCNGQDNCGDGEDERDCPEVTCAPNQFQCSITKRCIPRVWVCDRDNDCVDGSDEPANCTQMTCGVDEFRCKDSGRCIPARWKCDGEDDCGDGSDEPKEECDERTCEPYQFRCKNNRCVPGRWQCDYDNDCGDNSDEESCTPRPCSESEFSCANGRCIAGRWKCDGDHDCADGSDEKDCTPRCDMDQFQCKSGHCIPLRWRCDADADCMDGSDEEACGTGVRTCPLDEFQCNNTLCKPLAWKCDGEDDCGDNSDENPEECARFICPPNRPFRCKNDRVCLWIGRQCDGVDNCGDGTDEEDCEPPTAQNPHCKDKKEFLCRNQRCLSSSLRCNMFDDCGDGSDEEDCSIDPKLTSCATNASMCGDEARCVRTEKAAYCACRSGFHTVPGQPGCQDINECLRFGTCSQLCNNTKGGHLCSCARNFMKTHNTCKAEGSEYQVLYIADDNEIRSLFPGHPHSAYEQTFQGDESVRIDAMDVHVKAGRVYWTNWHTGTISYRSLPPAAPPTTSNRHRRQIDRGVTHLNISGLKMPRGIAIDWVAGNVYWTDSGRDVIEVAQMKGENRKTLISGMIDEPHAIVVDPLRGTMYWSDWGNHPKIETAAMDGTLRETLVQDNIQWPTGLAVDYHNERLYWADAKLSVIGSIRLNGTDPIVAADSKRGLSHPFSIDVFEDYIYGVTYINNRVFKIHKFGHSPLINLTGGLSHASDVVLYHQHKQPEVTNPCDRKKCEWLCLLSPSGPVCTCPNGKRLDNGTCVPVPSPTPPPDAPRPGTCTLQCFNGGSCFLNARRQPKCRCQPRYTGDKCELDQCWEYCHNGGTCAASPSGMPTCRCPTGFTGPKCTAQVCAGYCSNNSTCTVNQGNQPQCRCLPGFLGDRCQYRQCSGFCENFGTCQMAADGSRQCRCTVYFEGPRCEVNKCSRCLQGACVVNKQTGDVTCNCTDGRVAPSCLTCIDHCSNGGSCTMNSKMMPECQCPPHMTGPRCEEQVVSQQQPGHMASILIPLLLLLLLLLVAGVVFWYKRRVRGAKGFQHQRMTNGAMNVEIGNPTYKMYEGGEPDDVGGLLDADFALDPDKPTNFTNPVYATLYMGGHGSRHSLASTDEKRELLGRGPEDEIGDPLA

brain efflux of icv I-Aβ42 after two iv injections of anti-LRP-1 antisense cocktail, relative to saline treated mice [1] [%]	uptake of I-PACAP27 delivered by brain perfusion, 24 h after iv antisense cocktail against beta-F1 ATPase [2] [fold]	Molecule
0.87		42 amino acid murine amyloid beta (Aβ42) (from UniProt P12023 672-713) (peptide)
	4	HSDGIFTDSYSRYRKQMAVKKYLAAVL (peptide, UniProt P18509 132-158, looked up, ends and bridges not checked; also: 131I radioiodinated, residue not given here) [PACAP27 (pituitary adenylate cyclase-activating polypeptide, 27 amino acid form)]

From patent US20100196393A1 (ST LOUIS UNIVERSITY, published 2010)
